The target in this test is insulin receptor extracellular domain, short isoform (IR-A). Kind of test: SPR.

Turning to “insulin (from UniProt P01308 25-54; P01308 90-110) (ligand)”, the dissociation constant Kd was above 122 nM.

Values taken from publication PMC5985231.
